Reference: patent US20090016988

Experiments:
[1] = system: MPPT4 (proaerolysin with the activation sequence KVRRAR changed to the MMP2 site HPVGLLAR, 6xHis tag)
[2] = system: MPPT5 (proaerolysin with the MMP2 site HPVGLLAR joined by a GG linker to the uPA site SGRSAQ in the)
[3] = system: wild-type proaerolysin from Aeromonas hydrophila
[4] = system: MPPT1 (proaerolysin with the furin site KVRRAR replaced by the uPA site SGRSAQ, and a His tag)

active MMP2 protease (EMD/Calbiochem)
digestion with MMP2 (Western blot, 48 hour incubation samples) [1]: complete digestion for MPPT4
digestion with MMP2, 24 hours (silver stained SDS-PAGE) [1]: complete digestion for MPPT4 for all concentrations shown
Hemolytic titer after MMP2 digestion (hemolytic titer (wells with lysed cells)) [2]: 6.5
Hemolytic titer after MMP2 digestion (hemolytic titer (wells with lysed cells)) [3]: 0
digestion with MMP2 (Western blot, 48 hour incubation samples) [3]: less than 50% digestion for PA
digestion with MMP2, 2 hours (silver stained SDS-PAGE) [3]: PA is not measurably affected by MMP2
digestion with MMP2, 24 hours (silver stained SDS-PAGE) [3]: a small amount of digestion for PA

urokinase-type plasminogen activator (uPA)
Hemolytic titer, 0.016 mg/mL uPA (hemolytic titer (wells with lysed cells)) [4]: 6
Hemolytic titer, 0.04 mg/mL uPA (hemolytic titer (wells with lysed cells)) [4]: 7.5
Hemolytic titer, 0.08 mg/mL uPA (hemolytic titer (wells with lysed cells)) [4]: 7.5
activation by uPA digestion (Coomassie stained SDS-PAGE) [4]: the MPPT1 sample digested with 1 µg of uPA showed an activated aerolysin band (˜48 kDa; lowest band), and a high molecular weight oligomer band
conversion to aerolysin by 0.016 mg/mL uPA (SDS-PAGE) [4]: MPPT1 was nearly 50% converted
digestion with uPA, 120 minutes (Coomassie stained SDS-PAGE) [4]: After 120 minutes, the MPPT1 is almost completely activated by 0.04 mg/mL uPA
Hemolytic titer after uPA digestion (hemolytic titer (wells with lysed cells)) [2]: 7
Hemolytic titer after uPA digestion (hemolytic titer (wells with lysed cells)) [3]: 5
Hemolytic titer, 0.016 mg/mL uPA (hemolytic titer (wells with lysed cells)) [3]: 0
Hemolytic titer, 0.04 mg/mL uPA (hemolytic titer (wells with lysed cells)) [3]: 2.5
Hemolytic titer, 0.08 mg/mL uPA (hemolytic titer (wells with lysed cells)) [3]: 6
activation by uPA digestion (Coomassie stained SDS-PAGE) [3]: No activated aerolysin band, and only a very faint high molecular weight oligomer band, was seen for the PA sample digested with 1 µg of uPA
conversion to aerolysin by 0.016 mg/mL uPA (SDS-PAGE) [3]: No PA was converted to aerolysin when treated with 0.016 mg/mL uPA under these conditions
digestion with uPA, 2 hours (silver stained SDS-PAGE) [3]: it is somewhat sensitive to uPA, though not to the degree seen for MPPT5
digestion with uPA, 120 minutes (Coomassie stained SDS-PAGE) [3]: whereas much less PA was activated
